# Data from patent publication US20110229423A1 (Galderma Research & Development, priority 2008, published 2011).
# Ends that are not written are not given here.
# Columns and labels:
# [1] = tested on: VPAC1R mRNA; experiment: Semiquantitative RT-PCR of VPAC1R mRNA in HDMEC; type: cell-based, human; settings: 6 h
# Method: To verify our immunohistochemical observation on the mRNA level that the PACAP-induced effects in human dermal endothelial cells are mediated via VPAC1R, we performed RT PCR analysis for VPAC1R, VPAC2R and PAC1R in HDMEC (FIG. 11. Semiquantitative RT-PCR and gel electrophoresis of VPAC1R (FIG. 11A), PAC1R (FIG. 11B) and β-actin (FIG. 11C) in HDMEC. M=marker; lane 1: unstimulated HDMEC; lane 2: TNFα stimulated (4 ng/ml) HDMEC; lane 3 (11A): LPS-stimulated (10 ng/ml) HDMEC; lane 3 (11 B and 11C): HNK cells as positive control; lane 4: RT-control (negative control) In non-stimulated HDMEC cells, mRNA message was only found for PACAP and VPAC1R (FIG. 11A), but not PAC1R (FIG. 11B;) and VPAC2R (data not shown). Note that the PAC1R signal is positive in HNK cells that were used as a positive control. To examine whether proinflammatory mediators such as TNFα or LPS are capable of regulating VPAC1R mRNA expression, HDMEC were harvested without or 6 h after stimulation with TNFα (concentration: 4 ng/ml) or LPS (concentration: 10 ng/ml), respectively, and semiquantitative RT PCR was performed (FIG. 11). To consider the relative mRNA amount in the samples amplification of the housekeeping gene β-actin served as an internal control (FIG. 11C), TNFα as well as LPS induced upregulation of VPAC1R mRNA as compared to the unstimulated controls (FIG. 11). […]
# [2] = tested on: human skin; experiment: Flush phenomenon (erythema, edema) in volunteers after intravenous PACAP1-27; type: in vivo
# Method: B) Flush phenomenon in a probationer after intravenous application of PACAP1-27. Note cutaneous erythema and facial as well as a marked periorbital edema 30 min after application). […] The approximate duration when first signs of a “flush” occurred were 46.03±5.3 min with 100 pmol/kg b.w./h PACAP1-27. The erythema persisted approximately for 6 h.
# [3] = tested on: human skin; experiment: Skin temperature (ST) in human volunteers before and after intravenous peptide application; type: in vivo
# Method: First, the skin temperature (ST) was measured in different human body regions before and after continuous intravenous application of 100 pmol/kg b.w./h PACAP1-27. Under basal conditions a ST of 33.51±0.25° C. was measured at 0 min. Differences of ST [ΔT(° C.)] were measured after 5, 15, 30, 45, 60 min (FIG. 1: Changes in skin temperature [ΔT(° C.)] as compared to basal (0=33.51±0.25° C.) before and after continuous infusion of 100 pmol/kg b.w./h PACAP1-27 Mean±SEM, *=p<0.05 (n=10)). […] This increase persisted even after 30 min although less dramatic (+1.8° C.±0.26). […] This PACAP-induced effect in human skin was dose-dependent (FIG. 2: Changes in skin temperature [ΔT(° C.)] as compared to basal after continuous infusion of 7.5, 15, or 30 pmol/kg b.w./h PACAP1-27. Mean±SEM, *=p<0.05 (n=9). Mean time until first flush symptoms occurred was 46.03±5.30 min.). […] Next, ST was measured in different body regions before and after a bolus injection of […] PACAP1-27. […] Changes in skin temperature [ΔT(° C.)] as compared to basal ([…]=33.51±0.25° C.) under different conditions of continuous infusion and concentrations (◯=1 μg/kg b.w./h PACAP1-27; o=100 pmol/kg b.w./h). Mean±SEM, *=p<0.05 (n=10)). […] Mean±SEM, *=p<0.05 (n=7)).
# [4] = target: T1, VPAC1R (Homo sapiens, UniProt P32241); experiment: In vitro measurement of cAMP activation in HDMEC; type: cell-based
# T1 construct: To confirm that HDMEC express functional VPAC1R, we kept HDMEC in FCS/nutrient deficient medium for 24 h; endogenous in cells; host or cells: HDMEC (human dermal microvascular endothelial cells)
# T1 sequence (P32241 31-457): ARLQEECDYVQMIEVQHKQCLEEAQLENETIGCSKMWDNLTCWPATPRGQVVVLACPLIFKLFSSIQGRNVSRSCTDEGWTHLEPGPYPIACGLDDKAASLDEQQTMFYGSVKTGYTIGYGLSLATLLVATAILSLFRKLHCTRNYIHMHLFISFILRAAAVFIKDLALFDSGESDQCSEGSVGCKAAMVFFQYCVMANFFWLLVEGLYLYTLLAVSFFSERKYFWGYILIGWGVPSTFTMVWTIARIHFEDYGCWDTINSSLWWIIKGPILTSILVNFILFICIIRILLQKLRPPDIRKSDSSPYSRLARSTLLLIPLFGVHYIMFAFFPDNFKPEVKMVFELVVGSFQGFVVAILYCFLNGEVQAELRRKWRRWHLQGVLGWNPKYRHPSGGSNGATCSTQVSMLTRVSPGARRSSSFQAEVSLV
# Method: For example, Human Dermal Microvascular Endothelial cells (HDMEC) can be grown in endothelial cell growth medium. Lyophilized PACAP1-38 can be diluted in the appropriate volume of HDMEC assay medium immediately prior to use. IBMX (3-Isobutyl-1-Methylxanthin) can be added to the medium as a phosphodiesterase inhibitor in order to measure all the intracellular built cAMP after receptor stimulation without the intrinsic phosphdiesterase cleaving some of it. After 24 h cells can be harvested and extracted with 65% ethanol in PBS which can be lyophilized and the cAMP concentration can be examined using a cAMP EIA-direct assay (Amersham Pharmacia Biotech).
# Pretreatment with antagonist was 3 min before agonist stimulation. […] Experiments were performed at least three times). IBMX (3-Isobutyl-1-Methylxanthin; 4 mM) was added to the medium as a phosphodiesterase inhibitor in order to measure all the intracellular built cAMP after receptor stimulation without the intrinsic phosphodiesterase cleaving some of it.
# [5] = tested on: HDMEC; experiment: ELISA for NO release by HDMEC; type: cell-based, human
# Source text: In an alternative approach, the determination of the activity of PACAP signalling pathway can be carried out using an Enzyme-Linked Immunosorbent Assay (ELISA) for nitric oxide (NO) production in HDMEC. To study cytokine release by HDMEC after PACAP stimulation, cells can be stimulated as described above and supernatants can be collected and frozen until use for ELISA assays. For the detection of NO release, NO-ELISA kits, for example from BioSource Int. can be used.
# PACAP-induced release of NO in HDMEC. After finding that HDMEC express functional VPAC1R and that VPAC1R is the crucial receptor in human skin epithelium on the protein level, we examined whether PACAP is capable of releasing NO from HDMEC at similar concentrations. Therefore, we performed specific ELISAs with supernatants collected at time-points between […] (FIG. 12). Indeed, PACAP (10^−9 M) induced the release of NO (582%+/−25) by HDMEC as compared to control with a maximal effect at 15 min.
# [6] = Systemic parameters: pulse and blood pressure RR syst./diast. during PACAP infusion; type: in vivo, human
# Source text: To test whether these prominent effects in human skin (erythema, edema) and difference in skin temperature [ΔT(° C.)] were due to a local vascular effect and not due to a secondary systemic effect we measured systemic parameters such as pulse (B/min) and blood pressure RR syst./diast. (mm Hg). […] Thus, PACAP-induced changes are most likely due to a local effect in cutaneous vasculature.
# [7] = 30 min, change from 7.5 to 15 pmol/kg/h
# [8] = 60 min, change from 15 to 30 pmol/kg/h
substance,measurement,setting,value
LPS,VPAC1R mRNA compared to unstimulated controls,[1]; 10 ng/ml,upregulation
PACAP1-27,approximate duration when first signs of a flush occurred,[2]; 100 pmol/kg b.w./h,46.03 ± 5.3 min
same,mean time until first flush symptoms occurred,"[2]; FIG. 2: continuous infusion of 7.5, 15, or 30 pmol/kg b.w./h, n=9",46.03 ± 5.30 min
same,persistence of erythema,[2]; after i.v. application,~6 h
same,erythema (flushing) and edema compared to control injections,"[2]; all participants, bolus and continuous infusion",significant development of erythema (flushing) and edema
same,healthy volunteers in whom the effect was dominant in the face and upper trunk,[2]; i.v. application,nine out of ten
same,"increase of skin temperature, bolus versus continuous infusion",[3]; bolus 1 μmol/kg b.w./h compared with continuous 100 pmol/kg b.w./h,significantly higher increase of ST
same,maximum increase of skin temperature ΔT vs basal,"[3]; bolus injection 1 μmol/kg b.w./h, maximum after 30 min, n=8",2.7 °C
same,skin temperature course after bolus,"[3]; bolus injection, after 60 min",slight decrease of ST
same,skin temperature compared to basal,"[3]; bolus injection, after 120 min",still elevated
same,increase of skin temperature ΔT vs basal,"[3]; continuous i.v. 100 pmol/kg b.w./h, after 5 min, n=10, mean±SEM",1.2 °C
same,increase of skin temperature ΔT vs basal,"[3]; continuous i.v. 100 pmol/kg b.w./h, after 30 min, n=10, mean±SEM",1.8 °C
same,further increase of skin temperature compared to 30 min,"[3]; continuous i.v. 100 pmol/kg b.w./h, between 30 and 60 min",no significant increase of ST
same,increase of skin temperature ΔT vs basal,"[3]; i.v. infusion 7.5 pmol/kg b.w./h over 30 min, n=9",1.25 °C
same,increase of skin temperature ΔT vs basal,"[3]; i.v. infusion 15 pmol/kg b.w./h, n=9",2.1 °C
same,increase of skin temperature ΔT vs basal,"[3]; i.v. infusion 30 pmol/kg b.w./h, n=9",2.4 °C
same,skin temperature after stop of infusion,[3]; immediately after infusion of 30 pmol/kg b.w./h was stopped,slowly decreased
"PACAP6-27 (FTDSYSRYRKQMAVKKYLAAVL; ends and bridges not checked; UniProt P18509 137-158, looked up, fragment)",effect on agonist-induced cAMP activation,"[4]; 10^-7 M (100× the agonist), pretreatment 3 min before agonist",cut in half
same,PACAP-induced NO release after antagonist preincubation (value in brackets),[5]; preincubation before PACAP,79+/−22
same,effect of preincubation on PACAP-induced NO release,[5]; preincubation before PACAP,slightly enhanced
same,NO release when TNFa was incubated with the antagonist,[5]; with TNFa,significantly lower
Pituitary adenylate cyclase activating polypeptide [PACAP],cAMP activation compared to the negative control,"[4]; 10^−9 M, IBMX 4 mM",more than 4 fold
same,activation of VPAC1R in HDMEC (cAMP),[4]; FIG. 10,dose-dependent activation
same,release of NO as compared to control,[5]; 10^−9 M,582%
same,time of maximal effect on NO release,[5]; 10^−9 M,15 min
same,"NO release on incubation together with TNFα, versus TNFα alone",[5]; with TNFα,additive effect
same,R diastol.,"[6]; 5 min, infusion 7.5 pmol/kg/h",72 ± 4 mmHg
same,R systol.,"[6]; 5 min, infusion 7.5 pmol/kg/h",107 ± 4 mmHg
same,pulse,"[6]; 5 min, infusion 7.5 pmol/kg/h",64 ± 3 B/min
same,R diastol.,"[6]; 15 min, infusion 7.5 pmol/kg/h",75 ± 3 mmHg
same,R systol.,"[6]; 15 min, infusion 7.5 pmol/kg/h",109 ± 4 mmHg
same,pulse,"[6]; 15 min, infusion 7.5 pmol/kg/h",66 ± 4 B/min
same,R diastol.,[6]; [7],75 ± 3 mmHg
same,R systol.,[6]; [7],111 ± 5 mmHg
same,pulse,[6]; [7],68 ± 3 B/min
same,R diastol.,"[6]; 35 min, infusion 15 pmol/kg/h",74 ± 4 mmHg
same,R systol.,"[6]; 35 min, infusion 15 pmol/kg/h",111 ± 5 mmHg
same,pulse,"[6]; 35 min, infusion 15 pmol/kg/h",69 ± 3 B/min
same,R diastol.,"[6]; 45 min, infusion 15 pmol/kg/h",74 ± 4 mmHg
same,R systol.,"[6]; 45 min, infusion 15 pmol/kg/h",111 ± 5 mmHg
same,pulse,"[6]; 45 min, infusion 15 pmol/kg/h",73 ± 4 B/min
same,R diastol.,[6]; [8],74 ± 3 mmHg
same,R systol.,[6]; [8],111 ± 5 mmHg
same,pulse,[6]; [8],69 ± 3 B/min
same,R diastol.,"[6]; 65 min, infusion 30 pmol/kg/h",74 ± 3 mmHg
same,R systol.,"[6]; 65 min, infusion 30 pmol/kg/h",109 ± 5 mmHg
same,pulse,"[6]; 65 min, infusion 30 pmol/kg/h",71 ± 3 B/min
same,R diastol.,"[6]; 75 min, infusion 30 pmol/kg/h",74 ± 3 mmHg
same,R systol.,"[6]; 75 min, infusion 30 pmol/kg/h",110 ± 5 mmHg
same,pulse,"[6]; 75 min, infusion 30 pmol/kg/h",72 ± 2 B/min
same,R diastol.,[6]; 90 min (end of infusion),72 ± 4 mmHg
same,R systol.,[6]; 90 min (end of infusion),109 ± 5 mmHg
same,pulse,[6]; 90 min (end of infusion),69 ± 3 B/min
same,R diastol.,"[6]; 100 min, after end of infusion",73 ± 4 mmHg
same,R systol.,"[6]; 100 min, after end of infusion",109 ± 5 mmHg
same,pulse,"[6]; 100 min, after end of infusion",66 ± 4 B/min
same,R diastol.,"[6]; 110 min, after end of infusion",72 ± 4 mmHg
same,R systol.,"[6]; 110 min, after end of infusion",109 ± 4 mmHg
same,pulse,"[6]; 110 min, after end of infusion",68 ± 4 B/min
same,R diastol.,"[6]; 120 min, after end of infusion",74 ± 3 mmHg
same,R systol.,"[6]; 120 min, after end of infusion",112 ± 4 mmHg
same,pulse,"[6]; 120 min, after end of infusion",71 ± 4 B/min
same,differences in RR syst./diast. or pulse,[6]; during and after infusion,No measurable differences
TNFα,VPAC1R mRNA compared to unstimulated controls,[1]; 4 ng/ml,upregulation
"vasoactive intestinal peptide (HSDAVFTDNYTRLRKQMAVKKYLNSILN; ends and bridges not checked; UniProt P01282 125-152, looked up) [VIP1-28]",increase of skin temperature vs basal,"[3]; i.v. infusion 20 pmol/kg b.w./h, n=7",did not result in a significant increase of ST
same,increase of skin temperature ΔT vs basal,"[3]; i.v. infusion 100 pmol/kg b.w./h, maximum after 60 min, n=7",1.36 °C
